This data set can be described thus: yeast display, Sf9 membrane polyspecificity reagent, FACS + sequencing; frameworks hold sequencing errors. An outline of the steps: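 Synthetic nanobody libraries on Saccharomyces cerevisiae BJ5465 were galactose-induced for 36–48 hours, stained 1 hour at 4 °C with 10% biotinylated, detergent-solubilized Sf9 membrane reagent and enriched on streptavidin microbeads. FACS then separated cells into low and high (top ~1%) gates by anti-HA (expression) and streptavidin (reagent binding) fluorescence. Genes were colony-PCR amplified, MiSeq 2 × 250 sequenced and CDR-length filtered. A clone's polyreactivity label is that of its gate of origin.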
Consider “QVQLVESGGGLVQAGGSLRLSCAASGSIFMGNAMGWYRQAPGKERELVATITSSGSTSYADSVKGRFTISRDNAKNTVYVQMNSLKPEDTAVYYCNTDLFQYGRTSTIYYEYDYWGQGTQVTVSS”, for which the “polyreactivity (PSR sort gate)” value is listed as “high polyreactivity”.

With “QVQLVESGGGLVQAGGSLRLSCAASGSIFNAYAMGWYRQAPGKERELVAVISRPGGSTYYADSVKGRFTISRDNAKNTVYLQMNSLKPEDTAVYYCNVYYPYKHRYYHLDYWGQGTQVTVSS”, the “polyreactivity (PSR sort gate)” value is reported as “high polyreactivity”.

In the case of “QVQLVESGGGLVQAGGSLRLSCAASGSIFNDNVMGWYRQAPGKERELVAGISRSGTRTYYADSVKGRFTISRDNAKNTVYLQMNSLKPEDTAVYSGAAAYGQARRYNGSQYGSWGQGTQVTVSS”, the “polyreactivity (PSR sort gate)” value is given as “high polyreactivity”.

For the sequence “QVQLVESGGGLVQAGGSLRLSCAASGSIFNDYGKAWYRQAPGKERDLVAAISASGGSTYYADSVKGRFTISRYNAKNPVYLQLNSLNPEDTAVYYCAAYYMGLYYLYVDALGYDYWGQGTQVTVSS”, the “polyreactivity (PSR sort gate)” value is “low polyreactivity”.

Take “QVQLVESGGGLVQAGGSLRLSCAASGSIFNLNAMGWYIQAPGKERELVASISSDRSTYYADSVKGRFTISRDNAKNTVYLQMNSLKQEDTAVYYCNADSQLAFKQLSFDYWGQGTQVTVSS”: the “polyreactivity (PSR sort gate)” value is reported as “low polyreactivity”.

As to “QVQLVESGGGLVQAGGSLRLSCAASGSIFNLNAMGWYRQAPGKEREFVAGITYSAGRTYYADSVKGRFTISRDNAKNTVYLQMNSLKPEDTAVYYCAARIYSKFTSYGILDSWGQGTQVTVSS”, the “polyreactivity (PSR sort gate)” value was “high polyreactivity”.

“QVQLVESGGGLVQAGGSLRLSCAASGSIFNLYAMGWYRQAPGKERELVAAINWSGGSTYYADSVKGRFTISRDNAKNTVYLQMNSLKPEDTAVYYCAADAYSTYYGYEGDYWGQGTQVTVSS”: the “polyreactivity (PSR sort gate)” value is recorded as “low polyreactivity”.

For “QVQLVESGGGLVQAGGSLRLSCAASGSIFNLYAMGWYRQAPGKEREMVAAISYSTGSTYYADSVKGRFTISRDNAKNTVYLQMTSLKPEDTAVYYCNAQEGILGWVLYDYWGQGTQVTVSS”, the “polyreactivity (PSR sort gate)” value was “high polyreactivity”.

Consider “QVQLVESGGGLVQAGGSLRLSCAASGSIFNPYDMGWYRQAPGKERELVAAIDWSGGSTYYADSVKGRFTISRDNAKNTVYLQMNSLKPEDTAVYYCNAESYQDTLFGADNDYDYWGQGTQVTVSS”, for which the “polyreactivity (PSR sort gate)” value is recorded as “low polyreactivity”.

With “QVQLVESGGGLVQAGGSLRLSCAASGSIFNQYAMGWHRQAPGKERELVAAISSDGGRTYYADSVKGRFTISRDNAKNTVYLQMNSLNPEDTAVYYCNKDVRPAYRWYDYWGQDTQVTVSS”, the “polyreactivity (PSR sort gate)” value is listed as “low polyreactivity”.

Regarding “QVQLVESGGGLVQAGGSLRLSCAASGSIFNRNAMGWYRQAPGKERELVAAITRRGGSTYYADSVKGRFTISRDNAKNTVYLQMNSLKPEDTAVYYCAAATRKTEYDYWGQGTQVTVSS”, the “polyreactivity (PSR sort gate)” value was “low polyreactivity”.

For “QVQLVESGGGLVQAGGSLRLSCAASGSIFNRYAMGCYRQATGKERELVAAINSRGGSTSYADSVKGRFTISRDIAKNTVYLQMNSLKPEDTAVYYCAADRGVNSYGYWGQGTQETVSS”, the “polyreactivity (PSR sort gate)” value is “high polyreactivity”.

As to “QVQLVESGGGLVQAGGSLRLSCAASGSIFNRYAMGWYRQAPGKERELVAAIRSGDNTNYADSVKGRFTISRDNAKNTVYLQMNSLKPEDTAVYYCAKRTYYRSRTVGWGKMDYWGQGTQVTVSS”, the “polyreactivity (PSR sort gate)” value was “high polyreactivity”.

In the case of “QVQLVESGGGLVQAGGSLRLSCAASGSIFNRYAMGWYRQAPGKERELVAAISSTGSTYYADSVKGRFTISRDNAKNTVYLQMNSLKPEDTAVYYCNADATHDWLRVDTYEYWGQGTQVTVSS”, the “polyreactivity (PSR sort gate)” value is on record as “low polyreactivity”.

Consider “QVQLVESGGGLVQAGGSLRLSCAASGSIFNRYTMGWYRQAPGKERELVAAISKRGGSTYYADSVKGRFTISRDNAKNTVYLQMNSLKPEDTAVYYCAAAAYHSGKGGGYWGQGTQVTVSS”, for which the “polyreactivity (PSR sort gate)” value was “high polyreactivity”.

With “QVQLVESGGGLVQAGGSLRLSCAASGSIFNSNVMGWYRQAPGKERELVAAISTSGGSTHYADSVKGRFTISRDNAKNTVYLQMNSLKPEDTAVYYCAARVSSYSQLYYYWGQGTQVTVSS”, the “polyreactivity (PSR sort gate)” value is given as “high polyreactivity”.

Regarding “QVQLVESGGGLVQAGGSLRLSCAASGSIFNSYAMGWYRQAPGKERELVAAISGSGTRTYYADSVKGRFTISRDNAKNTVYLQMNSLKPEDTAVYYCAGYGYWGQGTQVNVSS”, the “polyreactivity (PSR sort gate)” value was “high polyreactivity”.

For the sequence “QVQLVESGGGLVQAGGSLRLSCAASGSIFNSYAMGWYRQAPGKERELVAAISKRGGSTYYADSVKGRFTISRDNAKNTVYLQMNSLKPEDTAVYYCAAEYYYAGWSYSYDYWGQGTQVTVSS”, the “polyreactivity (PSR sort gate)” value is on record as “high polyreactivity”.

Turning to “QVQLVESGGGLVQAGGSLRLSCAASGSIFNSYAMGWYRQAPGKERELVAAITRSDGSTYYADSVKGRFTISRDKAKNTVYLQMNSLKPEDTAVYYCAKGVGGYIYSEYDYWGQGTQVTVSS”, the “polyreactivity (PSR sort gate)” value is reported as “low polyreactivity”.

Turning to “QVQLVESGGGLVQAGGSLRLSCAASGSIFNTNAMGWYRQAPGKERELVAAISKNAGRTFYADSVKGRFTISRDNAKNTVYLQMNSLKPEDTAVYYCAARGVGPQPGYQRFNYWGQGTQVTVSS”, the “polyreactivity (PSR sort gate)” value is “high polyreactivity”.

Consider “QVQLVESGGGLVQAGGSLRLSCAASGSIFNTYVMGWYRQAPGKERELVAAITSSGGRTYYADSVKGRFTISRDNAKNTVYLQMNSLKPEDTAVYYCNTAQRWVGRNDYWGQGTQVTVSS”, for which the “polyreactivity (PSR sort gate)” value is “high polyreactivity”.

Take “QVQLVESGGGLVQAGGSLRLSCAASGSIFNWYAMGWSRQAPGKERELVAAISEDGGSTYYADSVKGRFTISRDNAKNTVYLQMNTLKPEDTAVYYCATPVASVTGYDYWGQGTQVTVSS”: the “polyreactivity (PSR sort gate)” value is “low polyreactivity”.

In the case of “QVQLVESGGGLVQAGGSLRLSCAASGSIFNYNAMGWYRQAPGKERELVAAITWSGGTTYYADSVKGRFTISRDNAKNTVYLQMNSLIPEDTAVYYCAAEWWDGSYPLYEYYYWGQGTQVNVSS”, the “polyreactivity (PSR sort gate)” value is on record as “high polyreactivity”.

“QVQLVESGGGLVQAGGSLRLSCAASGSIFNYNDMGWYRQAPGKERELVATITNGGGTNYADSVKGRFTISRDNAKNTVFLQMNSLKPEDTAVYYCAAGRSGWGYDSWGQGTQVTVSS”: the “polyreactivity (PSR sort gate)” value is given as “low polyreactivity”.

As for “QVQLVESGGGLVQAGGSLRLSCAASGSIFNYSAMGWYRQARGKERELVAGITTSGGSTYYADSVKGRFTISRDNAKNTVYLQMNSLKPEDTAVYYCAAYDYISSTYFLDDYWGQGTQVTVSS”, the “polyreactivity (PSR sort gate)” value was “low polyreactivity”.

In the case of “QVQLVESGGGLVQAGGSLRLSCAASGSIFNYYAMGWYRQAPGKERELVAAITSGVSTYADSVKGRFTISRDNAKNTVYLQMNSLKPEVTAVYYCADRVTGPRGDYWGQGTQVTVSS”, the “polyreactivity (PSR sort gate)” value is reported as “low polyreactivity”.

With “QVQLVESGGGLVQAGGSLRLSCAASGSIFNYYDMGWYRQAPGKERELVAAIDLTGGTTYYADSVKGRFTISRDNAKNTVYLQMNSLKPEDTAVYYCAAQYIRSSWWGYDYWGQGTQVSVSS”, the “polyreactivity (PSR sort gate)” value was “low polyreactivity”.

In the case of “QVQLVESGGGLVQAGGSLRLSCAASGSIFPANAMGWYRQAPGKERELVAGISERGSSTYYADSVKGRFTISRDNAKNTDYLQMNSLKPEDTAVYYCAADDVGRYWSYTHNWARGDYWGQGTQVTVSS”, the “polyreactivity (PSR sort gate)” value was “low polyreactivity”.

As to “QVQLVESGGGLVQAGGSLRLSCAASGSIFPAYAMGWYRQAPGKERELVAAITDRGGYTYYADSVKGRFTISRDNAKNTVYLQMNSLKPEDT”, the “polyreactivity (PSR sort gate)” value is “low polyreactivity”.

With “QVQLVESGGGLVQAGGSLRLSCAASGSIFPAYAMGWYRQAPGKERELVAAITFSGGSTYYADSVKGRFTISRDNAKNTVYLQMNSLKPEDTAVYYCATDSYGWRFNRAITSYGGDYWGQGTQVTVSS”, the “polyreactivity (PSR sort gate)” value is “low polyreactivity”.

Turning to “QVQLVESGGGLVQAGGSLRLSCAASGSIFPAYAMGWYRQAPGTERELVAAITFSGGRTYYADSVKGRFTISRDNAKNTVYLQMNSLKPEDTAVYDCAAYGAPSGTGAKYGYWGQGTQVTVSS”, the “polyreactivity (PSR sort gate)” value is on record as “low polyreactivity”.

Turning to “QVQLVESGGGLVQAGGSLRLSCAASGSIFPEYVMGWYRQAPGKERELVAAISWSGGSTYYADSVKGRFTISRDNAKNTVYLQMNSLKPEDTAVYYCNRVPSWRIDYDYWGQGTQVTVSS”, the “polyreactivity (PSR sort gate)” value is “low polyreactivity”.

Turning to “QVQLVESGGGLVQAGGSLRLSCAASGSIFPFNAMGWYRQAPGKERELVAAIRWSDGRTYYADSVKGRFTISRDNAKNTVYLQMNSLKPEDTAVYYCAAKSYWGQGTQVTVSS”, the “polyreactivity (PSR sort gate)” value is reported as “high polyreactivity”.

Turning to “QVQLVESGGGLVQAGGSLRLSCAASGSIFPFNAMGWYRQAPGKERELVAAISRRGTGTYYADSVKGRFTISRDNAKNTVYLQMNSLKPEDTAVYYCNAVVRAGHYDYWGQGTQVTVSS”, the “polyreactivity (PSR sort gate)” value is “high polyreactivity”.

Turning to “QVQLVESGGGLVQAGGSLRLSCAASGSIFPFYALGLYSQAPGTDRELVAGISNGDSPNYADSVKGRFTIARDNAKNSVYLQLNSLKPEDTGVYYCATDLPGGRYYGPYDYWGQGTQGTVSS”, the “polyreactivity (PSR sort gate)” value is reported as “low polyreactivity”.

In the case of “QVQLVESGGGLVQAGGSLRLSCAASGSIFPFYAMGWYRKAPGKERELVAAISDRGGSTYYADSVKGRFTISRDNAKNTVYLQMNSLKPDDTAVYYCAKGAEVSQGYTDEYDYWGQGTQVTVSS”, the “polyreactivity (PSR sort gate)” value was “low polyreactivity”.

Turning to “QVQLVESGGGLVQAGGSLRLSCAASGSIFPGFAMGWYRQAPGKERELVAAISTSGGNTYYADSVKGRFTISRDNAKNTVYLQMNSLKPEDTAVYYCAVRHRLYTAGYDYWGQGTQVTVSS”, the “polyreactivity (PSR sort gate)” value was “low polyreactivity”.

As to “QVQLVESGGGLVQAGGSLRLSCAASGSIFPGYAMGWYRPAPGKDRELVATIPWSGGSTYYADSVKGRFTISRDNENNTVYLQMNSLKPEDTAVYYCYADSYWYYQWYYYGLYDYWGAGTQVTVSS”, the “polyreactivity (PSR sort gate)” value is listed as “low polyreactivity”.

For “QVQLVESGGGLVQAGGSLRLSCAASGSIFPGYAMGWYRQAPGKERELVATITWSGGSTYYADSVKGRFTISRDNAKNTVYLQMNSLKPADTAVYYCNADSNWYYQWNYYGLYDYWGQGTQVTVSS”, the “polyreactivity (PSR sort gate)” value is reported as “low polyreactivity”.

In the case of “QVQLVESGGGLVQAGGSLRLSCAASGSIFPGYAMGWYRQAPGNERELVAAISSGGNTHYADSVKGRFTISRDNAKNTVYLQMNSLKPEDTAVYYCAASYDYTYYWGQGTQVTVSS”, the “polyreactivity (PSR sort gate)” value is “low polyreactivity”.

As to “QVQLVESGGGLVQAGGSLRLSCAASGSIFPGYARGWYRQAPGKERELVATITWSGGSTYYADSVKGRFTISRDNAKNTVYLQMNILIPEDTAVYYCNADSNWYYQWNYYGLYDYWGQGNQVTVSS”, the “polyreactivity (PSR sort gate)” value is “low polyreactivity”.

For the origin of these results see the nanobody polyreactivity screen of Harvey et al. (2022).
